Source: the nanobody polyreactivity screen of Harvey et al. (2022)

Assay: yeast display, Sf9 membrane polyspecificity reagent, FACS + sequencing; frameworks hold sequencing errors
Procedure, shortened: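 Genes from sorted yeast were amplified by colony PCR, read by MiSeq 2 × 250 sequencing and filtered on CDR length. These cells carried a synthetic nanobody library in Saccharomyces cerevisiae BJ5465 and were sorted by FACS into low and high (top ~1%) gates on anti-HA and streptavidin fluorescence. Polyreactivity is labelled according to the gate of origin.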

Sequence	polyreactivity (PSR sort gate)
QVQLQESGSGLFQAGGSLRQSCAASGAIFPAYLMGWYRQAPGKERELVAGISYGSITYCADSVKGRFNISRDNAKNTVYLKMNSLKPEDTAVFGYWGQGTQVTVSS	low polyreactivity
QVQLQESGSGLVQAGGSLRLSCAASGAIFPAYLMGWYRQPPGKERELVAGISYGSITYCADSVKGRFNISRDNAKNTVYLQMNSLKPEDTAVYYCAVWRPGGDEYYYWGQGTQVTVSS	low polyreactivity
QVQLQESGVCLVQAGGSPRLSCAASDNIFPDSVMCWYRQAPGKERELVATIGFGATTNYADSVKGRFTISRDNAKNTVYLQMNSLKPEDTAVYYCAADPLNYEYFCYWGQGTQVTVSS	low polyreactivity
QVQLQESGVGLVQAGGSLRLSCAASGSISAVGAMGCYRQAPGQEREFAASVNWGTNTNYADSVKGRFTISRDNAKNTLYLQMNSLKPEDTAVYYCAVLPDWETRHDYWGHGTQVTVSS	low polyreactivity
QVQLQESRGGLVQAGGSLRLSCAASGYISLAQTIGWYRQAPGKEREFVASIALGSSTYYTDSVKGSFTISRDNAKTTVYLQMISLQAEDTAVYYCAARVGASYAHDFWGQGTQVTVSS	low polyreactivity
QVQLQESRGGLVQVGGSQRLSCAASGNIFYNYAMGWYRHANGKEREFDATINHGTSINYADSVKGRFTISRDNAKNTLYLQMNSLKPEDTAVSYCAADLSWTDNLFYWGQGTQVTVTS	low polyreactivity
QVQLQESSGGLVQAGGSLRMGCAASGTIFHFHIMGWYRPAPGKEREFVAAISYGTSTYYADSVKGRFTISRDNAKNTVYLQMNSQKPEDTAVYYCAVYDYLEVYCWYWGQGTQVNVSS	low polyreactivity
QVQLQESSGGLVQAGGSLRMSCAASGTNFHFHIMGWYRQAPGKEREFVAAISYGTSTYYADSVKGRFTISRDNAKNTVYLQMNSQKPEDTAVYYCAVYDYLEVYCWYWGQGTQVTVSS	low polyreactivity
QVQLQETGGGLFQAGVSLRLSCATSGSIFWGNAMGWYRQSPGKDRELVAAISWGGGRTYYADSVKGRFTISRDNAKITVYLQINSLKPEDTAVYSCNTRYPYVVSTGYDYWGQGTQVTVSS	high polyreactivity
QVQLQGSGGGLVQAGGSLRLSCAASGYIFQNVPMGWNRQAPGKERELVAGIDNGTSTNYADSVNGRFTISRDNAKKTVYLQMNSLKPEDTAVYYCAAAGQADNTLGYWGQGTQVTVSS	low polyreactivity
QVQLQQSGDGLVQAVGSLRLSCAPSGSLSGYYSMGWYREAPGKVRELVAGIDAFGSSTNYADCVIGRFTISRDKATNTVYLQMKSLKPEDTAVYYCAARPDGVRLFSYWGQGTQVTESS	low polyreactivity
QVQLQVSGGDLVQAGGSLRLSCAASGTINGLTSMGWYRQAPGKEREFVAAITDGGYTNYADSVKGRFTISRDNAKNTVYLQMISLKPEDTAVYYCAVLFSDDAYYAYWGQGTQVTVSS	low polyreactivity
QVQLQVSGGGLVQAGGSLRLSCAASGSIFLTSEMGWYRQAPCKERELVAANATGTSTNYADSVKGRFTISRDNAKNTVYLQMKSLKPEDTSVYYCAAGTQAHAFVVRPIEMDYWGQGTQVTVSS	low polyreactivity
QVQLVASGGGLVLAGGILRLSCAASGSTFVSNALGWYRLAPGKERALVAVITFRGGTTYYADSVKGRFTISRDNAKNTVYLQMNSLKPEDTAGYYCAARSYQYSYSFYWGQGTQVTVSS	high polyreactivity
QVQLVASGGGLVQAGGSLLLSCAASGRIFAEYAMGWSRQAPGKERELVAVIDGTGGSTYYADSVKGRFTISRDNEKNTVYLLMNSLNPEDTAVYYCAATGRGSGRRFNYWGQGTQVTVSS	high polyreactivity
QVQLVASGGGLVQAGGSLRLSCAASGRIFSSNAMGWSRQAPGKEWELVAAITKSGGGTYYADSVKGRFTISRDNAKNTVYLQLNSLKPEDTAVYYCAKGQYRSSGYDYWGQGTQVTVSS	low polyreactivity
QVQLVASGGGLVQAGGSLRLSCAASGRTFYEYSIGWYRQAPGKERELDAGITSGGSTNYSDTVKGRFTISRDNATNPVFLLMNRLNPEDTAVYYCAAAYWGYEYDYWGQGTQVTLSS	low polyreactivity
QVQLVASGGGLVQAGGSLRLSCAASGSIFRFNPMGWSRHEPGKERELVAAISQSGSSTYYADSLKGRFTISRDNAKNTVYLQMNSLKPEDTAVYYCNVYTYQPYRMDLWRQGTQVTVSS	high polyreactivity
QVQLVASGGGLVQAGGSLRLSCAASGSTFRVNVMGWYRQAPGIERELVADITTSGGSTYYADSVKGRFTISRDNAMITVYLQINSLTPEDTAVYYCNTTYQSGWGPDMDYWGQGTQVTVSS	low polyreactivity
QVQLVASGGGLVQAGGSLRLSCAASGTTLYYYAKGWYRQAPGKEREMGAYISSSGDRTYYADSVNGRFTISRDNAKNTVDLQMNSLKPEDTAVYYCNAYLYVSGLDYATYSLGYWGQGTQVTVSS	low polyreactivity
QVQLVASGGGLVQAGGSLRLTCAASGITSWYYAMGWYRQAPGKERELVAAITSDGSTYYADSVKGRFTISRDNAKNTVYLQMNSLNPEDTAVYYCAAERDYWIPDSYLVVMDYWGQGTQVTVSS	low polyreactivity
